The target in the assay is T1, human CD3 epsilon (human, UniProt P07766 23-126, limits assumed).
T1 construct: also called huCD3e
Nature of the assay: Octet, crude lysate. As to the method:
Pool 2 consisted of paTCE molecules each containing PSMA.262 and one of 64 CD3.23 mutation combination variants. Stability and affinity of the individually expressed molecules in the form of crude lysate was evaluated by Octet. […] The binding of these anti-CD3 molecules (CD3.227, CD3.228, CD3.229 and CD3.230) to human and cynomolgus CD3 was measured by Octet and the Tm was measured by Differential Scanning Fluorimetry. All variants were paired with PSMA.262 except for CD3.23 which was paired with PSMA.5.
For orientation: In BLI a coated tip is dipped into the sample, and binding shifts an interference pattern.

In patent US20260055205A1 (published 2026) one finds Kd data, which are given here for 32 molecules.

The term Kd denotes the free concentration of one partner at which half of the binding sites on the other are occupied at equilibrium, for simple one-to-one binding.

Residue numbers refer to the chain shown, from its start.

T1 sequence (P07766 23-126 limits assumed): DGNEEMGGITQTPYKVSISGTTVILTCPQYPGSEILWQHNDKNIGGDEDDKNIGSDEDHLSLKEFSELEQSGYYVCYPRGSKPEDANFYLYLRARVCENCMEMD

B1: CD3.201 (bispecific antibody, V domains shown)
VH: EVQLLESGGGIVQPGGSLRLSCAASGFTFNTYAMNWVRQAPGKGLEWVGRIRSKRNNYATYYADSVKGRFTISRDDSKNTVYLQMNSLKTEDTAVYYCVRHENFGNSYVSWFAHWGQGTLVTVSS
VL: ELVVTQEPSLTVSPGGTVTLTCRSSNGAVTSSNYANWVQQKPGQAPRGLIGGTNKRAPGTPARFSGSLLGGKAALTLSGVQPEDEAVYYCALWYPNLWVFGGGTKLTVL
notes: paTCE with PSMA.262; also called AC3632
With B1, the Kd was 8.6 nM.

B2: CD3.209 (bispecific antibody, V domains shown)
VH: B1 VH with L5V, S87E
VL: B1 VL
notes: paTCE with PSMA.262; also called AC3640
With B2, the Kd was determined as 5.6 nM.

B3: CD3.220 (bispecific antibody, V domains shown)
VH: B1 VH with L5V, N30S, S53T, S87E
VL: B1 VL
notes: paTCE with PSMA.262; also called AC3651
In the case of B3, the Kd was 4.8 nM.

B4: CD3.223 (bispecific antibody, V domains shown)
VH: B1 VH with L5V, S53T, R55Y, N57D, S87E
VL: B1 VL
notes: paTCE with PSMA.262; also called AC3654
As for B4, the Kd came out at 6 nM.

B5: CD3.208 (bispecific antibody, V domains shown)
VH: B1 VH with L5V, R55Y, Y61T
VL: B1 VL
notes: paTCE with PSMA.262; also called AC3639
For B5, the Kd was determined as 16.8 nM.

B6: CD3.233 (bispecific antibody, V domains shown)
VH: B1 VH with L5V, S53T, R55Y, Y61T
VL: B1 VL
notes: paTCE with PSMA.262; also called AC3664
B6: the Kd was found to be 24.9 nM.

B7: CD3.205 (bispecific antibody, V domains shown)
VH: B1 VH with R55Y, N57D
VL: B1 VL
notes: paTCE with PSMA.262; also called AC3636
For the molecule B7, the Kd is 7.2 nM.

B8: CD3.218 (bispecific antibody, V domains shown)
VH: B1 VH with L5V, N30S, R55Y, Y61T
VL: B1 VL
notes: paTCE with PSMA.262; also called AC3649
In the case of B8, the dissociation constant (Kd) was 52.6 nM.

B9: CD3.224 (bispecific antibody, V domains shown)
VH: B1 VH with L5V, N30S, S53T, R55Y, N57D, S87E
VL: B1 VL
notes: paTCE with PSMA.262; also called AC3655
Regarding B9, the Kd came to 6.4 nM.

B10: CD3.221 (bispecific antibody, V domains shown)
VH: B1 VH with L5V, S53T, R55T, S87E
VL: B1 VL
notes: paTCE with PSMA.262; also called AC3652
As to B10, the Kd was found to be 11.7 nM.

B11: CD3.207 (bispecific antibody, V domains shown)
VH: B1 VH with R55Y, Y61T
VL: B1 VL
notes: paTCE with PSMA.262; also called AC3638
In the case of B11, the dissociation constant Kd was 15.6 nM.

B12: CD3.236 (bispecific antibody, V domains shown)
VH: B1 VH with L5V, R55Y, Y58G
VL: B1 VL
notes: paTCE with PSMA.262; also called AC3667
On to B12, for which the Kd worked out at 21.9 nM.

B13: CD3.219 (bispecific antibody, V domains shown)
VH: B1 VH with L5V, S53T, S87E
VL: B1 VL
notes: paTCE with PSMA.262; also called AC3650
Take B13: the Kd turned out to be 4.7 nM.

B14: CD3.211 (bispecific antibody, V domains shown)
VH: B1 VH with L5V, R55T, S87E
VL: B1 VL
notes: paTCE with PSMA.262; also called AC3642
With B14, the Kd came out at 9.5 nM.

B15: CD3.206 (bispecific antibody, V domains shown)
VH: B1 VH with L5V, R55Y, N57D
VL: B1 VL
notes: paTCE with PSMA.262; also called AC3637
Regarding B15, the dissociation constant (Kd) was found to be 10.3 nM.

B16: CD3.235 (bispecific antibody, V domains shown)
VH: B1 VH with L5V, R55Y, N57E
VL: B1 VL
notes: paTCE with PSMA.262; also called AC3666
As for B16, the Kd worked out at 6.5 nM.

B17: CD3.222 (bispecific antibody, V domains shown)
VH: B1 VH with L5V, N30S, S53T, R55T, S87E
VL: B1 VL
notes: paTCE with PSMA.262; also called AC3653
In the case of B17, the Kd came to 10.8 nM.

B18: CD3.232 (bispecific antibody, V domains shown)
VH: B1 VH with L5V, N30S, S53T, R55Y, N57D
VL: B1 VL
notes: paTCE with PSMA.262; also called AC3663
Turning to B18, the equilibrium dissociation constant (Kd) turned out to be 5.1 nM.

B19: CD3.225 (bispecific antibody, V domains shown)
VH: B1 VH with L5V, S53T, R55Y, Y61T, S87E
VL: B1 VL
notes: paTCE with PSMA.262; also called AC3656
As for B19, the Kd was found to be 19.5 nM.

B20: CD3.234 (bispecific antibody, V domains shown)
VH: B1 VH with L5V, N30S, S53T, R55Y, Y61T
VL: B1 VL
notes: paTCE with PSMA.262; also called AC3665
For B20, the Kd amounted to 17.4 nM.

B21: CD3.213 (bispecific antibody, V domains shown)
VH: B1 VH with L5V, R55Y, N57D, S87E
VL: B1 VL
notes: paTCE with PSMA.262; also called AC3644
B21: the Kd amounted to 6.6 nM.

B22: CD3.217 (bispecific antibody, V domains shown)
VH: B1 VH with L5V, N30S, R55Y, N57D
VL: B1 VL
notes: paTCE with PSMA.262; also called AC3648
For the molecule B22, the Kd was found to be 10.7 nM.

B23: CD3.202 (bispecific antibody, V domains shown)
VH: B1 VH with L5V
VL: B1 VL
notes: paTCE with PSMA.262; also called AC3633
For the molecule B23, the Kd came out at 8.4 nM.

B24: CD3.237 (bispecific antibody, V domains shown)
VH: B1 VH with L5V, R55Y, Y58G, S87E
VL: B1 VL
notes: paTCE with PSMA.262; also called AC3668
For B24, the Kd came to 22.2 nM.

B25: CD3.226 (bispecific antibody, V domains shown)
VH: B1 VH with L5V, N30S, S53T, R55Y, Y61T, S87E
VL: B1 VL
notes: paTCE with PSMA.262; also called AC3657
As for B25, the dissociation constant Kd is 50.9 nM.

B26: CD3.215 (bispecific antibody, V domains shown)
VH: B1 VH with L5V, N30S
VL: B1 VL
notes: paTCE with PSMA.262; also called AC3646
B26: the Kd was determined as 9.7 nM.

B27: CD3.204 (bispecific antibody, V domains shown)
VH: B1 VH with L5V, R55T
VL: B1 VL
notes: paTCE with PSMA.262; also called AC3635
With B27, the equilibrium dissociation constant (Kd) was found to be 7.2 nM.

B28: CD3.210 (bispecific antibody, V domains shown)
VH: B1 VH with L5V, N30S, S87E
VL: B1 VL
notes: paTCE with PSMA.262; also called AC3641
B28: the Kd was 5.7 nM.

B29: CD3.212 (bispecific antibody, V domains shown)
VH: B1 VH with L5V, N30S, R55T, S87E
VL: B1 VL
notes: paTCE with PSMA.262; also called AC3643
For the molecule B29, the Kd was found to be 35.6 nM.

B30: CD3.216 (bispecific antibody, V domains shown)
VH: B1 VH with L5V, N30S, R55T
VL: B1 VL
notes: paTCE with PSMA.262; also called AC3647
For the molecule B30, the Kd was determined as 11.2 nM.

B31: CD3.214 (bispecific antibody, V domains shown)
VH: B1 VH with L5V, N30S, R55Y, N57D, S87E
VL: B1 VL
notes: paTCE with PSMA.262; also called AC3645
B31: the Kd was determined as 6.6 nM.

B32: CD3.231 (bispecific antibody, V domains shown)
VH: B1 VH with L5V, S53T, R55Y, N57D
VL: B1 VL
notes: paTCE with PSMA.262; also called AC3662
Regarding B32, the Kd amounted to 5.1 nM.
